Reference: publication PMC2132754

Biological target: recombinant mouse α-catenin with a COOH-terminal histidine tag (mouse) (UniProt P26231)
Experiment: co-sedimentation

Chain of UniProt P26231 (P26231 whole entry): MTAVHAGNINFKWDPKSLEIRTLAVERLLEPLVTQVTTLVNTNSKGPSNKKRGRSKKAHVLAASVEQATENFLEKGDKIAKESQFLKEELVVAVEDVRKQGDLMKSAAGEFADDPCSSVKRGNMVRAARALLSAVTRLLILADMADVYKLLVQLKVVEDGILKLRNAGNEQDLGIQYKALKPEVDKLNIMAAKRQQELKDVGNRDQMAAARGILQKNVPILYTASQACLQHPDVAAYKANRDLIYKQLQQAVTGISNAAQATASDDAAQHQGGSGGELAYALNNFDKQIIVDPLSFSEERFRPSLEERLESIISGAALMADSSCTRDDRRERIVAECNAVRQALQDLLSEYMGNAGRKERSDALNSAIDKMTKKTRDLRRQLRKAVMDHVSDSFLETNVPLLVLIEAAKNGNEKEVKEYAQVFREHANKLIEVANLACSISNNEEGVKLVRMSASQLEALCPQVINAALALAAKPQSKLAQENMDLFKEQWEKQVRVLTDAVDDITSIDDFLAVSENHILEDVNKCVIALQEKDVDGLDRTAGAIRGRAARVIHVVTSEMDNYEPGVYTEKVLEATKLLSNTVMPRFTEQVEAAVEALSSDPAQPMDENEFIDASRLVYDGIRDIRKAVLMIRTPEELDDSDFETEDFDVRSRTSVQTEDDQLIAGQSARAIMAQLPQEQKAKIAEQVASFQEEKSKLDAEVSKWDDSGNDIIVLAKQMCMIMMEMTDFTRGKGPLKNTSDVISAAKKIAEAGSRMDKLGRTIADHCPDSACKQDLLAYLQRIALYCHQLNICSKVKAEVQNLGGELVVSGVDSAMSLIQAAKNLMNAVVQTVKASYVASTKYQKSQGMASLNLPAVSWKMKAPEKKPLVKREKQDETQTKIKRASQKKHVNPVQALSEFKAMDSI

stoichiometry N: 1
Substance: vinculin 90-kD head fragment (V8 protease fragment of chicken gizzard vinculin) (domain or fragment)
